Test results as given in paper PMC3718800, “Structural and Functional Perturbation of Giardia lamblia Triosephosphate Isomerase by Modification of a Non-Catalytic, Non-Conserved Region” (PLoS ONE, 2013).

Each substance was assayed on O=C[C@H](O)COP(=O)(O)O (assay: Coupled alpha-glycerol-3-phosphate dehydrogenase assay following NADH decrease at 340 nm at 25°C in 100 mM triethanolamine/10 mM EDTA, pH 7.4, with 0.2 mM NADH and GAP varied from 0.3 to 3 mM, fitted to the Michaelis-Menten equation by non-linear regression.).
Type: biochemical
Description: Glyceraldehyde 3-phosphate (GAP), buffers, salts and all the other analytical grade reagents were acquired from Sigma–Aldrich; α-glycerol-3-phosphate dehydrogenase (α-GDH) was from Roche, crystallization screen kits were obtained from Hampton Research. Restriction enzymes, DNA polymerase and T4 DNA ligase were purchased from New England BioLabs and Invitrogene. Oligonucleotide synthesis and DNA sequencing was performed at the Unidad de Biología Molecular, Instituto de Fisiología Celular, UNAM. Protein concentration was determined by the bicinchoninic acid method or by absorbance at 280 nm for pure GlTIM (ε280 = 26600 M^-1cm^-1). The TIM activity was determined at 25°C by a coupled assay, following the decrease in absorbance at 340 nm. The standard reaction mixture contained 100 mM triethanolamine/10 mM EDTA, pH 7.4 (TE buffer), 1 mM GAP, 0.2 mM NADH, and 0.9 units of α-GDH (20 μg/mL); the reaction was initiated by addition of 5 ng/mL of WT, C222V or C222M GlTIM, 10 ng/mL of C222N, 20 ng/mL of C222D or C222F, and 200 ng/mL of C222K. Kinetic, binding and stability data were analyzed by non-linear regression calculations with Origin software.
Determination of Km and Vmax was performed by fitting initial velocity data at GAP concentrations ranging from 0.3 to 3 mM to the Michaelis-Menten equation (v = Vmax•S/Km+S) by non-linear regression calculations. The kcat was derived from Vmax by considering a molecular mass for the monomer of 27.7 kDa. The Ki for 2-phosphoglycolate (2-PG) was calculated by global fit of initial velocity curves (GAP from 0.3 to 3 mM) obtained at different fixed concentrations of the inhibitor. Prior to fitting collectively the data to the simple competitive inhibition equation (v = Vmax•S/Km(1+I/Ki)+S), individual data were plotted as double reciprocal plots to confirm competitive inhibition.

Substance | Km [µM] | Vmax [µmol/min/mg] | kcat [s⁻¹]
C222V (Giardia duodenalis; C222V) | 960 ± 120 | 9560 | 8670
C222K (Giardia duodenalis; C222K) | 3100 ± 640 | 255 | 217
C222F (Giardia duodenalis; C222F) | 3900 ± 460 | 1660 | 1500
C222M (Giardia duodenalis; C222M) | 1850 ± 460 | 3100 | 2800
C222D (Giardia duodenalis; C222D) | 4880 ± 810 | 3720 | 3330
C222N (Giardia duodenalis; C222N) | 2790 ± 730 | 3650 | 3320
